Laboratory results reported in paper PMC12408736.

Test system: Rap1 (Naumovozyma castellii)
Assay: competition EMSA
Conditions: labeled N1 probe, 10 mM Tris-HCl pH 7.5, 7 mM MgCl2, 8% glycerol, 10 fmol probe in 15 µl, ~0.6 µg Rap1 extract, 1.5 µg non-specific competitor (E. coli DNA, salmon sperm DNA …); for binding signal: 400x competitor, scale: fold shifted probe remaining vs telomeric competitor

Sequence	binding signal (fold shifted probe remaining (reference)) (unlabeled N1 as competitor)	binding signal
GTCTGGGTGTCTGGGTGTC (double strand) [telomeric ds-probe (19 bp)]	1	
TGTTGTTGATGGTGGTGTTGTTTTTTTGTC (double strand) [ST-2]		66
GTGTCGTTAGGTACGGAGGGTGTTGTTTGGAATATG (double strand) [ST-4]		33
AAGATTTGTATAGTCTGGGTAATGTATGTCAT (double strand) [ST-3]		91
AAGGATAGTTGGTCTGGGTGAGGATATTCTGTT (double strand) [ST-1]		60
